Experimental data taken from US20100286365A1 (AMYLIN PHARMACEUTICALS, published 2010).
Like-named read-outs stand apart in the source and are kept apart here. Where no end group is shown, it is not given here. Side-chain parts run from the residue outwards. [ ]: non-standard residue; d: D form. lisinopril monoester = lisinopril with its ethyl ester not hydrolysed, amide-linked to γ-Abu; linker type G21 = not defined here; linker type C9 = not defined here; pGlu = O=C1CC[C@@H](C(=O)O)N1; AEEA = NCCOCCOCC(=O)O; GABA = NCCCC(=O)O

Legend:
ACE from rabbit lung [1] = target: T1, ACE from rabbit lung (rabbit, UniProt P12822 34-1310, limits assumed); test: cell-based or functional assay
T1 sequence (looked up): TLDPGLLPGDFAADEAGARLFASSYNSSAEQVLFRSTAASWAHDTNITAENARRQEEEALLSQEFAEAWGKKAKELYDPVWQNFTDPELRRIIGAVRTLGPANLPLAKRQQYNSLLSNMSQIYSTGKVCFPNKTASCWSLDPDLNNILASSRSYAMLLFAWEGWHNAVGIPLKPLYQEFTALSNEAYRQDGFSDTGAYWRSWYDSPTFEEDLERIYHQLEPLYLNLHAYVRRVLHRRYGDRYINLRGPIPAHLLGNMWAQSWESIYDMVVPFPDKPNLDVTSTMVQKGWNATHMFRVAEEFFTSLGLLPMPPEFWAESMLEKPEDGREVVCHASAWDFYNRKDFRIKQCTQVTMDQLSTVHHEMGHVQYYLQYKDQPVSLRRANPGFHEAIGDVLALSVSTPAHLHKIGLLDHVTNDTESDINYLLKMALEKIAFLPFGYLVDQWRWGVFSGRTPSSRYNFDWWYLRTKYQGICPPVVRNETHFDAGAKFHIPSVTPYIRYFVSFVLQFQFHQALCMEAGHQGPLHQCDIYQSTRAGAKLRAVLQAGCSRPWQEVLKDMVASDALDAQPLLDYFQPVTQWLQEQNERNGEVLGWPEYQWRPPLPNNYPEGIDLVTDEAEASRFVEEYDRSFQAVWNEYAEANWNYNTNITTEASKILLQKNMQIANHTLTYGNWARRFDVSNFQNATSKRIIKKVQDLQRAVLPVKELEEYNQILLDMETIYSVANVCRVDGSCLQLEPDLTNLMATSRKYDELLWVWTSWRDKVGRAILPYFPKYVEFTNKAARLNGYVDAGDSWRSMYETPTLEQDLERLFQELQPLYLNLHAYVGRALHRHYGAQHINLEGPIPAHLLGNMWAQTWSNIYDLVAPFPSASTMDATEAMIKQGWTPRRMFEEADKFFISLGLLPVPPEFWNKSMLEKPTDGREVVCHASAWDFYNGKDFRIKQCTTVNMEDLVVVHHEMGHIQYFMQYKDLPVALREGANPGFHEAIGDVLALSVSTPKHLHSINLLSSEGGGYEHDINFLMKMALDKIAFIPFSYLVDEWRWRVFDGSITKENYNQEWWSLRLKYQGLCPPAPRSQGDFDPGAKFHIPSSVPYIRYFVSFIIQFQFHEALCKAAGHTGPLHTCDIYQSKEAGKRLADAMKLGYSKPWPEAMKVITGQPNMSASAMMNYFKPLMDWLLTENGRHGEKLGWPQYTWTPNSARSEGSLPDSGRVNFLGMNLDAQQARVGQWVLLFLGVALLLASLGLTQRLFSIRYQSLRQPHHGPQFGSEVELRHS

ACE from rabbit lung [2] = target: T1, ACE from rabbit lung; test: cell-based or functional assay; remark: listed apart in the source
[3] = target: T2, GLP-1 receptor endogenously expressed by the thyroid c-cell carcinoma line 6-23 (UniProt P32301 22-463); test: cell-based or functional assay
T2 sequence (looked up): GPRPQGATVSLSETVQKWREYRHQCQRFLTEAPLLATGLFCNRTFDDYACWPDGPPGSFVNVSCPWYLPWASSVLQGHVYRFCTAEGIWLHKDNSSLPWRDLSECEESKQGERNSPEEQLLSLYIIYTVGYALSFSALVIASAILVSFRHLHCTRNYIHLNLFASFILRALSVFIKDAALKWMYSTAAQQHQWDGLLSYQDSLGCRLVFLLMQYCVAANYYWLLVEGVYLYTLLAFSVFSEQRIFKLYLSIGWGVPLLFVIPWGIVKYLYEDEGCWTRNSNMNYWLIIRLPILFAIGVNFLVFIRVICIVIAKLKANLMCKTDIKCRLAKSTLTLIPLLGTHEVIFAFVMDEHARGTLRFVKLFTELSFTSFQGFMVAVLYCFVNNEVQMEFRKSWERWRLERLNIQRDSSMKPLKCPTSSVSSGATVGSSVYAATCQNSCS

Recombinant DPP-IV [4] = test: cell-based or functional assay
human GIP receptor = target: T3, human GIP receptor (human, UniProt P48546 22-466); test: displacement of 30 pM 125I-GIP from HEK-GIPR membranes by 10 nM conjugate, relative to human GIP (100%)
T3 construct: whole, on cells; Membrane fractions of HEK-GIPR cells were used; also called HEK-GIPR
T3 sequence (looked up): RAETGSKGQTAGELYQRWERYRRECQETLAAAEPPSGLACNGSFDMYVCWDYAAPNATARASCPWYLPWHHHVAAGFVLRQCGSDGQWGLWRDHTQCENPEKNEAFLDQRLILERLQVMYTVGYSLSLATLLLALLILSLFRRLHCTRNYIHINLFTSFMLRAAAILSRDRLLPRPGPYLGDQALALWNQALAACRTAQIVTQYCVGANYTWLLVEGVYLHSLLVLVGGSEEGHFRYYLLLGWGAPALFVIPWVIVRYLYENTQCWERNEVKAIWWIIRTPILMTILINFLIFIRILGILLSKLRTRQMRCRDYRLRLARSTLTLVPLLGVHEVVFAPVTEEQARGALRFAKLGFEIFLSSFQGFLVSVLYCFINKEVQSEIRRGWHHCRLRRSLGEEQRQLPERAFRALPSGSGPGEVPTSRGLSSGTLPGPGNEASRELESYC
Method: Membrane fractions were prepared from confluent cell cultures of HEK-GIPR, snap frozen, and stored at −80° C. until use. […] Reactions were allowed to proceed to equilibrium for 90 minutes at room temperature with constant shaking. The reaction mixtures were then filtered through 96-well glass fiber filter plates separating bound and unbound fractions of radioligand.

[5] = target: T4, GLP-1 receptor endogenously expressed by RIN m5f cells (UniProt P32301 22-463, limits assumed); test: cell-based or functional assay
T4 sequence (looked up): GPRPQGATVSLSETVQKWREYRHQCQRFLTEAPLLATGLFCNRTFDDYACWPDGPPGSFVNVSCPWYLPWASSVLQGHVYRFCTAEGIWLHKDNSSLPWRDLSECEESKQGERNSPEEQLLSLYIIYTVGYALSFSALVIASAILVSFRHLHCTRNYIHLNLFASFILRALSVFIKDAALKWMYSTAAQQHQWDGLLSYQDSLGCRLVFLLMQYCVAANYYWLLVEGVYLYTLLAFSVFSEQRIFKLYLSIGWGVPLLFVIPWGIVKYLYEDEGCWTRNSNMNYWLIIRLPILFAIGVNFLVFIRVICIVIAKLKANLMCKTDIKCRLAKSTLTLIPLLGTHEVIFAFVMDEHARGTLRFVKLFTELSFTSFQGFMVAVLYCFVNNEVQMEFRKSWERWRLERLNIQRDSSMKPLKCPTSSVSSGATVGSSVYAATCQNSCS

Recombinant DPP-IV [6] = test: cell-based or functional assay; remark: listed apart in the source
[7] = target: T4, GLP-1 receptor endogenously expressed …; test: displacement of [125I]GLP-1 tracer from RIN m5f cell membranes (endogenous GLP-1 receptor), filter binding
Method: Membrane fractions were prepared from confluent cultures of RIN m5f cells. […] The reaction mixtures were constantly mixed at 23° C. for 2 hours. The reaction mixtures were filtered through glass filter pads presoaked with 0.3% PEI solution and rinsed with ice-cold phosphate buffered saline. Counts bound to the filer pads were determined using a scintillation counter and binding affinities were calculated using GraphPad PRISM® software (GraphPad Software, Inc., San Diego, Calif.).

## HAEGTFTSDVSSYLEGQAAKEFIAWLVKGRG (C-terminus extended by γ-Abu-β-Ala and amide-linked (CONH) to lisinopril diacid) [GLP-1(7-37)-γ-Abu-β-Ala-CONH-lisinopril diacid]
ACE from rabbit lung [1]
  ACE inhibition IC50: 180 nM

## HAEGTFTSDVSSYLEGQAAKEFIAWLVKGRG (lisinopril joined at the C-terminus through linker type G21 (FIG. 2)) [Compound 5607]
ACE from rabbit lung [2]
  ACE inhibition IC50: 100 nM

## HAEGTFTSDVSSYLEGQAAKEFIAWLVKGRG (lisinopril joined at the C-terminus through linker type C9 (FIG. 2)) [Compound 5547]
ACE from rabbit lung [2]
  ACE inhibition IC50: 180 nM

## HAEGTFTSDVTQQLDEKAAKEFIDWLINGGPSKEIIS-{linker type G21-lisinopril} (reading uncertain) [Compound 5713]
ACE from rabbit lung [2]
  ACE inhibition IC50: 700 nM
[3]
  GLP Cyclase EC50: 2.89 nM

## IPI [Diprotin A (Ile-Pro-Ile)]
Recombinant DPP-IV [4]
  DPP-IV inhibition IC50: 5100 nM

## YAEGTFISDYSIAMDKIHQQDFVNWLLAQK (C-terminus extended by Ado-Lys-N-ε-(2-(S)-cyano pyrrolidyl)) [GIP(1-30)-Ado-Lys-N-ε-(2-(S)-cyano pyrrolidyl)]
Human GIP receptor
  GIP RBA % inhibition at 10 nM: 99%

## YAEGTFISDYSIAMDKIHQQDFVNWLLAQK (C-terminus extended by Ado-Ado-Lys-N-ε-(2-(S)-cyano pyrrolidyl)) [GIP(1-30)-Ado-Ado-Lys-N-ε-(2-(S)-cyano pyrrolidyl)]
Human GIP receptor
  GIP RBA % inhibition at 10 nM: 97%

B1: [^2D-Ala^14Leu] GIP(1-30)-βAla-βAla-ε-NH-Lys(α-NH-Pyroglutamoyl)-Trp-Ala-Pro (peptide)
peptide 1: Y[dA]EGTFISDYSIALDKIHQQDFVNWLLAQK
peptide 2: [pGlu]KWAP-OH
modifications: not fully specified (C-terminus); printed as [^2D-Ala^14Leu] GIP(1-30)-βAla-βAla-ε-NH-Lys(α-NH-Pyroglutamoyl)-Trp-Ala-Pro; also: linker at chain B 2 to a chain's C-terminus via βAla-βAla
notes: also called [^2D-Ala,^14Leu]; GIP-(1-30)-β-Ala-β-Ala-Lys(α-NH-Pyroglutamoyl)-Trp-Ala-Pro-COOH
Human GIP receptor
  GIP RBA % inhibition at 10 nM: 66%

B2: [^2D-Ala] GIP(1-30)-Ado-Ado-Aun-βAla-βAla-ε-NH-Lys(α-NH-Pyroglutamoyl)-Trp-Ala-Pro (peptide)
peptide 1: Y[dA]EGTFISDYSIAMDKIHQQDFVNWLLAQK
peptide 2: [pGlu]KWAP
modifications: not fully specified (C-terminus); printed as [^2D-Ala] GIP(1-30)-Ado-Ado-Aun-βAla-βAla-ε-NH-Lys(α-NH-Pyroglutamoyl)-Trp-Ala-Pro; also: linker at chain B 2 to a chain's C-terminus via Ado-Ado-Aun-βAla-βAla
Human GIP receptor
  GIP RBA % inhibition at 10 nM: 70%

## HAEGTFTSDVTQQLDEKAAKEFIDWLINGGPSKEIIS [Compound 4202]
[3]
  GLP Cyclase EC50: 0.03 nM

## YAEGTFISDYSIAMDKIHQQDFVNWLLAQK (not fully specified (N-terminus)) [N-(γ-L-Glu-2-(S)-cyano pyrrolidyl)-Ado-Ado) GIP(1-30)]
Human GIP receptor
  GIP RBA % inhibition at 10 nM: 32%

B3: GLP-1(7-37)-GG-(S)-2,6-diamino-1-(thiazolidin-3-yl)hexan-1-one amide (peptide)
peptide: HAEGTFTSDVSSYLEGQAAKEFIAWLVKGRGGG
modifications: C-terminal Gly amide-linked to (S)-2,6-diamino-1-(thiazolidin-3-yl)hexan-1-one (Lys-thiazolidide, DPP-IV inhibitor motif)
notes: also called Cmpd 4844; 4844
[5]
  GLP Cyclase EC50: 0.13 nM
Recombinant DPP-IV [6]
  DPP-IV IC50: 91 nM
[7]
  IC50: 0.087 nM

B4: GLP-1(7-37)-GG-(S)-2,6-diamino-1-(thiazolidin-2-cyano-3-yl)hexan-1-one amide (peptide)
peptide: HAEGTFTSDVSSYLEGQAAKEFIAWLVKGRGGG
modifications: C-terminal Gly amide-linked to (S)-2,6-diamino-1-(thiazolidin-2-cyano-3-yl)hexan-1-one (Lys-2-cyanothiazolidide, DPP-IV inhibitor motif)
notes: also called Cmpd 4845; 4845
[5]
  GLP Cyclase EC50: 0.4 nM
Recombinant DPP-IV [6]
  DPP-IV IC50: 76 nM
[7]
  IC50: 0.1 nM

## HAEGTFTSDVTQQLDEKAAKEFIDWLINGGPSKEIIS-{linker type C9-lisinopril} (reading uncertain) [Compound 5714]
ACE from rabbit lung [2]
  ACE inhibition IC50: 350 nM
[3]
  GLP Cyclase EC50: 2.93 nM

## HAEGTFTSDVSSYLEGQAAKEFIAWLVKGR-NH2 [GLP-1]
Recombinant DPP-IV [6]
  DPP-IV IC50: > 3300 nM

## YAEGTFISDYSIAMDKIHQQDFVNWLLAQK([AEEA-γ‑L‑Glu‑2‑(S)‑cyano pyrrolidyl]) [Lys^30 N-ε-(Ado-(γ-L-Glu-2-(S)-cyano pyrrolidyl)) GIP(1-30)]
Human GIP receptor
  GIP RBA % inhibition at 10 nM: 33%

## YAEGTFISDYSIALDKIHQQDFVNWLLAQK-{AEEA-Lys‑N‑ε‑(2-(S)-cyano pyrrolidyl)} [[^14Leu] GIP(1-30)-Ado-Lys-N-ε-(2-(S)-cyano pyrrolidyl)]
Human GIP receptor
  GIP RBA % inhibition at 10 nM: 100%

## HAEGTFTSDVSSYLEGQAAKEFIAWLVKGRG-{GABA-lisinopril monoester} [GLP-1(7-37)-γ-Abu-CONH-lisinopril monoester]
ACE from rabbit lung [1]
  ACE inhibition IC50: > 100000 nM

B5: GLP-1(7-37)-γ-Abu-N^ε2Lys-(Pyr)-WAP-OH (peptide)
peptide 1: HAEGTFTSDVSSYLEGQAAKEFIAWLVKGRG
peptide 2: [pGlu]KWAP-OH
modifications: not fully specified (C-terminus); also: linker at chain B 2 to a chain's C-terminus via γ-Abu
ACE from rabbit lung [1]
  ACE inhibition IC50: > 10000 nM
